The text below walks through data of patent US20240270821A1, “GIP/GLP1/GCG TRI-RECEPTOR AGONISTS AND USES THEREOF” (priority 2023, published 2024).

Residue numbers refer to the chain shown, from its start.

Test in all cases: cell-based or functional assay
The target in one test is hGLP-1R (Homo sapiens, UniProt P43220).
Test [1] deals with human glucagon receptor (human) (UniProt P47871).
Test [2] concerns the target T1, human GIP receptor (human) (UniProt P48546).
T1 sequence (looked up): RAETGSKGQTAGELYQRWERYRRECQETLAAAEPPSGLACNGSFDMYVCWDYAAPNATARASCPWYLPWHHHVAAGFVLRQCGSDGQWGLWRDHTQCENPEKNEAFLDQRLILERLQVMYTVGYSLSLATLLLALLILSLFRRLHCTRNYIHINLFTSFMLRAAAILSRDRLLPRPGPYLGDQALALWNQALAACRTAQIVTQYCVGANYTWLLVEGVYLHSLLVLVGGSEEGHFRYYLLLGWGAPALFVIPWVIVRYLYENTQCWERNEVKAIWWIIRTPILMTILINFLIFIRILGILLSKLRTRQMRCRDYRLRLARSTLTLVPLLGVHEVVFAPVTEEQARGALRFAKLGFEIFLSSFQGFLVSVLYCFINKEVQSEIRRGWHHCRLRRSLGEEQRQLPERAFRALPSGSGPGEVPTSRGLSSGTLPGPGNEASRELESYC

hGLP-1R, sequence (P43220 24-463): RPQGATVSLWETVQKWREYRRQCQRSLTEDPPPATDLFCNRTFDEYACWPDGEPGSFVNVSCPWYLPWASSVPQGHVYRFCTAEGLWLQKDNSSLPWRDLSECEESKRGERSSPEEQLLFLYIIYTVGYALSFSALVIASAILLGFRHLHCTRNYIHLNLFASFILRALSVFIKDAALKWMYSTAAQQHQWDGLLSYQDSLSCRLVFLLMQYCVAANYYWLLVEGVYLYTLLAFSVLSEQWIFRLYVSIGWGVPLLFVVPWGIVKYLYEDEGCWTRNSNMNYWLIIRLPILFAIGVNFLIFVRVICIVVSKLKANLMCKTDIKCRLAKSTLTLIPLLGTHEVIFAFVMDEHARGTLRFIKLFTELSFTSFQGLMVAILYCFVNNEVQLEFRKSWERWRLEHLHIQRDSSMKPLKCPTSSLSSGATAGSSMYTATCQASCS
human glucagon receptor (human), sequence (P47871 26-477): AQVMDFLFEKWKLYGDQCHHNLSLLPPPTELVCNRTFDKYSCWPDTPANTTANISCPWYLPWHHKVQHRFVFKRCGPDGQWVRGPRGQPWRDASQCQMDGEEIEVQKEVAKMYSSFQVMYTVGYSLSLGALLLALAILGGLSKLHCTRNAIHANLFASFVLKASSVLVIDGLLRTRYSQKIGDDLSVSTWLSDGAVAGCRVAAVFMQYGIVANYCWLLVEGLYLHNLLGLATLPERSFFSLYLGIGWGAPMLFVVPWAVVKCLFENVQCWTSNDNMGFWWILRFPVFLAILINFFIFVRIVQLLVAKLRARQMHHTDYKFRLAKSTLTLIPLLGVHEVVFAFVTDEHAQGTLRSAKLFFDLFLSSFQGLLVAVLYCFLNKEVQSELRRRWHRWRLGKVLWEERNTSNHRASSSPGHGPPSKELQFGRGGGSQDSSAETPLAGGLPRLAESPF

B1: Example 822 (peptide)
chain: YXQGTFTSDXSQXLDKKAQXAFIEYLLEAGPSSGAPPPSGX
modifications: synthetic construct; SITE 2: note = 2-Aminoisobutyric Acid; SITE 10: note = 3-(4-Pyridyl)-L-alanine; SITE 13: note = alpha-methyl-leucine; SITE 17: note = Lysine is chemically modified through conjugation of the epsilon-amino group of the Lysine side chain with (2-[2-(2-Amino-ethoxy)-ethoxy]-acetyl)
Take B1: the results for the Relative cAMP EC50 (with hGLP-1R; in test [1]; in test [2]) were 2.51 nM, 11.6 nM and 0.186 nM, respectively. In addition, the figures for the cAMP Rel EC50 (1% HSA) (in the test with hGLP-1R; in test [1]; in test [2]) were 322 nM, 2100 nM and 18.1 nM, respectively.

B2: Example 805 (peptide)
chain: YXQGTFTSDFSKXLDKKAQXAFIEYLIEXSPSSGAPPPSGS
modifications: synthetic construct; SITE 2: note = 2-Aminoisobutyric Acid; SITE 13: note = alpha-methyl-leucine; SITE 17: note = Lysine is chemically modified through conjugation of the epsilon-amino group of the Lysine side chain with (2-[2-(2-Amino-ethoxy)-ethoxy]-acetyl)-(gamma-Glu)-CO-(CH2) 16-CO2H; SITE 20: n
Take B2: the Relative cAMP EC50 in the test with hGLP-1R amounted to 0.715 nM; in test [1] it was 3.97 nM; in test [2], 0.0875 nM. Further, the cAMP Rel EC50 (1% HSA) with hGLP-1R was found to be 146 nM; in test [1], 1210 nM; in test [2] it was 13 nM.

B3: Example 77 (peptide)
chain: B2 chain with K12R, I27L, E28A, X29G, S30G
modifications: synthetic construct; SITE 2: note = 2-Aminoisobutyric Acid; SITE 13: note = alpha-methyl-leucine; SITE 17: note = Lysine is chemically modified through conjugation of the epsilon-amino group of the Lysine side chain with (2-[2-(2-Amino-ethoxy)-ethoxy]-acetyl)-(gamma-Glu)-CO-(CH2) 18-CO2H; SITE 20: n
Take B3: the Relative cAMP EC50 with hGLP-1R came out at 1.85 nM; in test [1], 15.3 nM; in test [2], 0.168 nM. Besides, the cAMP Rel EC50, nM (in the presence of 1% HSA) was 339 nM with hGLP-1R, 2610 nM in test [1] and 37.9 nM in test [2].

B4: Example 806 (peptide)
chain: B2 chain with K12R
modifications: synthetic construct; SITE 2: note = 2-Aminoisobutyric Acid; SITE 13: note = alpha-methyl-leucine; SITE 17: note = Lysine is chemically modified through conjugation of the epsilon-amino group of the Lysine side chain with (2-[2-(2-Amino-ethoxy)-ethoxy]-acetyl)-(gamma-Glu)-CO-(CH2) 16-CO2H; SITE 20: n
Consider B4, for which the Relative cAMP EC50 was 0.706 nM with hGLP-1R, 8.25 nM in test [1] and 0.124 nM in test [2]. Moreover, the results for the cAMP Rel EC50 (1% HSA) (with hGLP-1R; in test [1]; in test [2]) were 128 nM, 2760 nM and 15.1 nM, respectively.

B5: Example 820 (peptide)
chain: B1 chain with X41S
modifications: synthetic construct; SITE 2: note = 2-Aminoisobutyric Acid; SITE 10: note = 3-(4-Pyridyl)-L-alanine; SITE 13: note = alpha-methyl-leucine; SITE 17: note = Lysine is chemically modified through conjugation of the epsilon-amino group of the Lysine side chain with (2-[2-(2-Amino-ethoxy)-ethoxy]-acetyl)
On to B5, for which the Relative cAMP EC50 in the test with hGLP-1R is 2.78 nM; in test [1] it was 6.83 nM; in test [2] it was 0.121 nM. Further, the results for the cAMP Rel EC50 (1% HSA) (with hGLP-1R; in test [1]; in test [2]) were 299 nM, 1270 nM and 17.5 nM, respectively.

B6: Example 824 (peptide)
chain: B1 chain with G34X, X41T
modifications: C-terminal amide; acylated; synthetic construct; SITE 2: note = 2-Aminoisobutyric Acid; SITE 10: note = 3-(4-Pyridyl)-L-alanine; SITE 13: note = alpha-methyl-leucine; SITE 17: note = Lysine is chemically modified through conjugation of the epsilon-amino group of the Lysine side chain with (2-[2-(2-Amino-ethoxy)-ethoxy]-acetyl)
Regarding B6, the Relative cAMP EC50 in the test with hGLP-1R worked out at 2.43 nM; in test [1], 7.92 nM; in test [2] it was 0.123 nM. Moreover, the cAMP Rel EC50 (1% HSA) with hGLP-1R turned out to be 343 nM; in test [1], 1110 nM; in test [2], 28.9 nM.

B7: Example 825 (peptide)
chain: B1 chain with G34X, X41T
modifications: synthetic construct; SITE 2: note = 2-Aminoisobutyric Acid; SITE 10: note = 3-(4-Pyridyl)-L-alanine; SITE 13: note = alpha-methyl-leucine; SITE 17: note = Lysine is chemically modified through conjugation of the epsilon-amino group of the Lysine side chain with (2-[2-(2-Amino-ethoxy)-ethoxy]-acetyl)
Turning to B7, the Relative cAMP EC50 in the test with hGLP-1R was 3.4 nM; in test [1], 5.53 nM; in test [2], 0.12 nM. Besides, the cAMP Rel EC50 (1% HSA) with hGLP-1R came to 303 nM; in test [1], 1810 nM; in test [2], 39.3 nM.

B8: Example 891 (SEQ ID NO: 897) (peptide)
chain: YXQGTFTSDXSQXLDKKAQXAFIEYLIEXGPSSGAPPPSGSGE
modifications: not fully specified; C-terminus uncertain, likely amide; synthetic construct; SITE 2: note = 2-Aminoisobutyric Acid; SITE 10: note = 3-(4-Pyridyl)-L-alanine; SITE 13: note = alpha-methyl-leucine; SITE 17: note = Lysine is chemically modified through conjugation of the epsilon-amino group of the Lysine side chain with (gamma-Glu)2-CO-(CH2)16-CO2H; SITE 20:
Consider B8, for which the results for the cAMP Rel EC50 (in the test with hGLP-1R; in test [1]; in test [2]) were 330 nM, 581 nM and 16 nM, respectively.

B9: Example 902 (peptide)
chain: B8 chain with Q12K, G42E
modifications: synthetic construct; SITE 2: note = 2-Aminoisobutyric Acid; SITE 10: note = 3-(4-Pyridyl)-L-alanine; SITE 13: note = alpha-methyl-leucine; SITE 17: note = Lysine is chemically modified through conjugation of the epsilon-amino group of the Lysine side chain with (2-[2-(2-Amino-ethoxy)-ethoxy]-acetyl)
As for B9, the Relative cAMP EC50 turned out to be 2.58 nM with hGLP-1R, 15.9 nM in test [1] and 0.19 nM in test [2]. The cAMP Rel EC50 (1% HSA) with hGLP-1R worked out at 232 nM; in test [1], 1360 nM; in test [2], 28.5 nM.

B10: Example 905 (peptide)
chain: B8 chain with Q12K, G42E
modifications: synthetic construct; SITE 2: note = 2-Aminoisobutyric Acid; SITE 10: note = 3-(4-Pyridyl)-L-alanine; SITE 13: note = alpha-methyl-leucine; SITE 17: note = Lysine is chemically modified through conjugation of the epsilon-amino group of the Lysine side chain with (gamma-Glu)2-CO-(CH2)16-CO2H; SITE 20:
Take B10: the Relative cAMP EC50 with hGLP-1R stood at 2.52 nM; in test [1] it was 12.3 nM; in test [2] it was 0.217 nM. For the same molecule, the cAMP Rel EC50 (1% HSA) with hGLP-1R amounted to 215 nM; in test [1], 1390 nM; in test [2], 10.4 nM.

B11: Example 893 (SEQ ID NO: 899) (peptide)
chain: B8 chain
modifications: not fully specified; synthetic construct; SITE 2: note = 2-Aminoisobutyric Acid; SITE 10: note = 3-(4-Pyridyl)-L-alanine; SITE 13: note = alpha-methyl-leucine; SITE 17: note = Lysine is chemically modified through conjugation of the epsilon-amino group of the Lysine side chain with (gamma-Glu)2-CO-(CH2)16-CO2H; SITE 20:
B11: the cAMP Rel EC50 came out at 305 nM with hGLP-1R, 508 nM in test [1] and 21.4 nM in test [2].

B12: Example 903 (peptide)
chain: YXQGTFTSDXSKXLDKKAQXAFIEYLIEXGPSSGAPPPSGSEEE
modifications: synthetic construct; SITE 2: note = 2-Aminoisobutyric Acid; SITE 10: note = 3-(4-Pyridyl)-L-alanine; SITE 13: note = alpha-methyl-leucine; SITE 17: note = Lysine is chemically modified through conjugation of the epsilon-amino group of the Lysine side chain with (2-[2-(2-Amino-ethoxy)-ethoxy]-acetyl)
With B12, the results for the Relative cAMP EC50 (with hGLP-1R; in test [1]; in test [2]) were 2.7 nM, 12.9 nM and 0.277 nM, respectively. Also, the cAMP Rel EC50 (1% HSA) is 387 nM in the test with hGLP-1R, 1630 nM in test [1] and 31.2 nM in test [2].

B13: Example 906 (peptide)
chain: B12 chain
modifications: synthetic construct; SITE 2: note = 2-Aminoisobutyric Acid; SITE 10: note = 3-(4-Pyridyl)-L-alanine; SITE 13: note = alpha-methyl-leucine; SITE 17: note = Lysine is chemically modified through conjugation of the epsilon-amino group of the Lysine side chain with (gamma-Glu)2-CO-(CH2)16-CO2H; SITE 20:
On to B13, for which the Relative cAMP EC50 was 2.48 nM with hGLP-1R, 14.7 nM in test [1] and 0.212 nM in test [2]. The values for the cAMP Rel EC50 (1% HSA) (with hGLP-1R; in test [1]; in test [2]) were 236 nM, 1170 nM and 15.4 nM, respectively.
